“And” between values parts separate entries of the source, which are not always exact repeats. Equal entries are not always repeated. “Also recorded” adds a separate entry of the source. Marks after values point to notes of the source that are not given here.
Legend:
c-MYC [1] = assay type: cell-based, human
[2] = system: A498 kidney epithelial cells; assay type: cell-based, human
CK1α1 [3] = assay type: cell-based, human
MB49 bladder tumors = conditions: mouse, in vivo
CK1α1 [4] = target: CK1α1 (Homo sapiens, UniProt P48729)
Protocol: Kidney epithelial cells were stained with rabbit anti-c-MYC (Abcam), rabbit anti-CK1α1 (Cell Signaling Technology), rabbit anti-c-MYB (Sigma Aldrich), rabbit anti-CEBPD (Abcam) or mouse anti-his6-tag primary antibodies (1:200 in 5% FBS/PBS, overnight at 4° C.), followed by secondary goat anti-rabbit Alexa Fluor 488-conjugated or goat-anti mouse Alexa Fluor 568-conjugated antibodies (Molecular Probes, A-11034) (1:200 in 5% FBS and 0.025% Triton X-100/PBS, 1 hour at room temperature). Cells were counterstained with DRAQ5 (Abcam) and examined using a LSM 510 META laser scanning confocal microscope (Carl Zeiss). Fluorescence signal was quantified in 50 cells per condition using Image J.
Cells were lysed with NP-40 lysis buffer supplemented with protease and phosphatase inhibitors (Roche diagnostics). Proteins were run on SDS-PAGE (4-12% Bis-Tris gels, Invitrogen), blotted onto PVDF membranes (Biorad), blocked and stained with primary rabbit anti-c-MYC (1:1000, Abcam), rabbit anti-CK1α1 (1:1000, Cell Signaling Technology) or rabbit-anti-Lon (1:2000, Biorbyt) overnight at 4° C. Membranes were washed and stained with HRP-conjugated goat anti-rabbit HRP conjugated secondary antibodies (1:4000, Cell Signaling) washed again, imaged using ECL plus detection reagent (GE Healthcare) and quantified by ImageJ. β-actin was used as a loading control.

CDK9 = CDK9 (Homo sapiens, UniProt P50750); test: In vitro degradation assay, CDK9; assay type: biochemical
Protocol: (§1) 0.1 μg of recombinant proteins were incubated with 0.2 μg of Lon protease (Abcam, ab141921), or PBS, in a reaction buffer consisting of 20 mM MgCl2 in the presence of ATP (2 mM) in 50 mM Tris. pH 8.0. Proteins were incubated at 37° C. for 60, 120 or 240 minutes and were denatured using 10 mM DTT in NuPAGE Sample Buffer at 100° C. for 5 minutes before further analysis.

MAX [5] = target: T1, MAX (Homo sapiens, UniProt P61244); assay type: binding
intestinal polyps = system: intestinal polyps; design: species or system C57BL/6J-APC^min/J mice; conditions: mouse, in vivo
c-MYB = assay type: cell-based, human
GRP75 = GRP75 (Homo sapiens, UniProt P38646); test: In vitro degradation assay, GRP75; assay type: biochemical
Protocol: as §1

HH3 = assay type: biochemical
c-MYC [6] = target: T2, c-MYC (Homo sapiens, UniProt P01106); assay type: binding
T2 construct: GST

CBEB1 = CBEB1 (Homo sapiens, UniProt Q9BZB8); test: In vitro degradation assay, CPEB1; assay type: biochemical
Protocol: as §1

[7] = mouse, in vivo
CEBP-δ = assay type: cell-based, human
Actin = assay type: biochemical
[8] = mouse, in vivo; remark: listed apart in the source
c-MYC [9] = target: T2, c-MYC; test: In vitro degradation assay of recombinant c-MYC by Lon protease; assay type: biochemical
Protocol: […] Proteins were incubated at 37° C. for 60, 120 or 240 minutes and were denatured using 10 mM DTT in NuPAGE Sample Buffer at 100° C. for 5 minutes before further analysis.
Samples were diluted with NuPAGE LDS sample buffer (Invitrogen) mixed with 10 mM dithiotreitol (DTT) and incubated at 56° C. for 20 min followed by addition of iodoacetamide (IAA) to a final concentration of 20 mM. Samples were loaded on 4-12% NuPAGE (Invitrogen). The electrophoresis was run in MOPS buffer. The gel was Coomassie stained and bands of interest were excised from the SDS-PAGE and trypsin digested, followed by identification using LC-MS/MS as per above. MS/MS spectra were investigated with PEAKS (version 10) against UniProt Human (released 2020 Feb. 21) where the sequence for GST-tag-MYC had been added. The precursor tolerance and fragment tolerance were set to 10 ppm and 0.05 Da, respectively. None enzyme was selected, methionine oxidation and deamidation of asparagine and glutamine were treated as dynamic modification and carbamidomethylation of cysteine as a fixed modification.

c-MYC [10] = assay type: cell-based, human; remark: listed apart in the source
AKT = assay type: biochemical
MAX [11] = target: T1, MAX; test: In vitro degradation assay, MAX; assay type: biochemical
Protocol: as §1

T2 sequence (P01106 16-454): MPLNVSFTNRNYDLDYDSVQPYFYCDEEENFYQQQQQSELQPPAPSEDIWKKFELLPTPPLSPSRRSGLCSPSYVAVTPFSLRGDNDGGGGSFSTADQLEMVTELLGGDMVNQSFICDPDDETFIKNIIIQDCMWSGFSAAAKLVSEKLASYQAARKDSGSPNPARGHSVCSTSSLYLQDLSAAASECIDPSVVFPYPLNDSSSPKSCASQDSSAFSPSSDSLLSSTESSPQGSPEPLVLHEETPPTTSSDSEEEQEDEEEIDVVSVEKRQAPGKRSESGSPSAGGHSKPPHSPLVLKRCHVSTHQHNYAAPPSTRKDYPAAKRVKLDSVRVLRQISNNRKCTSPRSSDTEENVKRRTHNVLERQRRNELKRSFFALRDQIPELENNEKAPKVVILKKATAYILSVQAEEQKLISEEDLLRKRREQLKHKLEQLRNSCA
T1 sequence (P61244 whole entry, species assumed): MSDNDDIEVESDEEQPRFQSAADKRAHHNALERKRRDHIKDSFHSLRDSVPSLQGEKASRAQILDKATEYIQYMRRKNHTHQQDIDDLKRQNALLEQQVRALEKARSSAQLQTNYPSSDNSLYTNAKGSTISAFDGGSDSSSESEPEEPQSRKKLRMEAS
Sequence of CK1α1 (Homo sapiens, UniProt P48729) (P48729 whole entry): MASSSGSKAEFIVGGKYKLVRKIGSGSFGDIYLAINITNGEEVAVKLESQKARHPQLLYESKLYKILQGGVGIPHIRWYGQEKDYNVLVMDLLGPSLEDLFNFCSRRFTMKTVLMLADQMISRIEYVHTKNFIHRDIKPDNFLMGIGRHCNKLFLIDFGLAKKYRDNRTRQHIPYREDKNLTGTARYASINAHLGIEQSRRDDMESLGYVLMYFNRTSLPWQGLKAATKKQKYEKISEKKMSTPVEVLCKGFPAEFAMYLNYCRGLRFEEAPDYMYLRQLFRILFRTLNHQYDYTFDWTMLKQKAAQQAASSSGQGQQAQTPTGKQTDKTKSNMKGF
Sequence of GRP75 (P38646 47-679, species assumed): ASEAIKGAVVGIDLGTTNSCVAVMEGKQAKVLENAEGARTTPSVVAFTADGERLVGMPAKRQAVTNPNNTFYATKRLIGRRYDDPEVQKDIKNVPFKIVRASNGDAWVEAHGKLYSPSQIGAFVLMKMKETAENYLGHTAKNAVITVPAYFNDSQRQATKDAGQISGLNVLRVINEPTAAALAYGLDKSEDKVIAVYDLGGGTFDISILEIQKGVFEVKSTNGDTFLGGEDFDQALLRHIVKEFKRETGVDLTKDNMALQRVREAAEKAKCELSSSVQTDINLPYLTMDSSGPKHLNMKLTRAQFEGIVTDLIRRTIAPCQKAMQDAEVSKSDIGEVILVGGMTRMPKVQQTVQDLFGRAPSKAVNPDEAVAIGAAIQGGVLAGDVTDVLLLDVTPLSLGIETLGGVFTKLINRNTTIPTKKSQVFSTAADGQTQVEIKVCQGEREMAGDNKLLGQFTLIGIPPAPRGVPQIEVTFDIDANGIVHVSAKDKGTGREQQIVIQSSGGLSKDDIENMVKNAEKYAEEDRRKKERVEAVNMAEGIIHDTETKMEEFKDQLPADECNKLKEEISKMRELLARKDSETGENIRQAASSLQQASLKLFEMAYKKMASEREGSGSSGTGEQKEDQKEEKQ
Sequence of CBEB1 (Q9BZB8 whole entry): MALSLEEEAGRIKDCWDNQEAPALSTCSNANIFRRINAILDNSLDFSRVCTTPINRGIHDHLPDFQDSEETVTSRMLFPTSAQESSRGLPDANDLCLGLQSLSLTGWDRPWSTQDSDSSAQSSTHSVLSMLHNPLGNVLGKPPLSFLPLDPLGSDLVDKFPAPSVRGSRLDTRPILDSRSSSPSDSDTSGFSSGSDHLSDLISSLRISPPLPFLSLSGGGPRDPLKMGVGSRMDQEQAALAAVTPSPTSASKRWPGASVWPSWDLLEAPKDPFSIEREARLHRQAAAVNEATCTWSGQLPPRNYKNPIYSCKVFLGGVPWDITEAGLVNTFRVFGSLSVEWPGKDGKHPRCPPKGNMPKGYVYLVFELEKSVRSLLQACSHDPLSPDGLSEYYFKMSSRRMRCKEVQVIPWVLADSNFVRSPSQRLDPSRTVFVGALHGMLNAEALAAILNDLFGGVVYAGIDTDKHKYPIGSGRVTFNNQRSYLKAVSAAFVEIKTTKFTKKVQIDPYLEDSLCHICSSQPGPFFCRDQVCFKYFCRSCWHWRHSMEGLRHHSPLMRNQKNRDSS
Sequence of CDK9 (P50750 whole entry, species assumed): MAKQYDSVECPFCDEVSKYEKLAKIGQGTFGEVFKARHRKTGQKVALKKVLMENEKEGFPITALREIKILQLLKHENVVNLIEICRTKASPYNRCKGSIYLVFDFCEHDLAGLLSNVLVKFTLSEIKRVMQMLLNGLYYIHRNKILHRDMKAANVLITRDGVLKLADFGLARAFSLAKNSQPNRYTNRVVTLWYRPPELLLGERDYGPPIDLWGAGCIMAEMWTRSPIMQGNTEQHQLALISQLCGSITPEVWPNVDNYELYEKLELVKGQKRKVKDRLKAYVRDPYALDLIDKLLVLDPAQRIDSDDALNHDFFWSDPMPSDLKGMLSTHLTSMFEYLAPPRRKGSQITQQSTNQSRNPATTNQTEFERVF

Molecule: [Ca+2].[Cl-].[Cl-] [CaCl2]
- Effect of metal ion pretreatment of E. coli 536 on c-MYC inhibition (c-MYC [1]): no effect

Molecule: O=C(N/N=C/c1ccc(O)c(O)c1)c1cc2ccccc2cc1O [Dynasore]
- Lon protease staining and uptake after endocytosis inhibitor pre-treatment [2]: reduced Lon protease staining and uptake

Molecule: O=C(O)CN(CCOCCOCCN(CC(=O)O)CC(=O)O)CC(=O)O [EGTA, Egtazic acid]
- Effect on CK1α1 activation (CK1α1 [3]): inhibited the activation of CK1α1

Molecule: COc1cccc2c1C(=O)c1c(O)c3c(c(O)c1C2=O)C[C@@](O)(C(=O)CO)C[C@@H]3O[C@H]1C[C@H](N)[C@@H](O)[C@H](C)O1 [Epirubicin, reference compound]
- Bladder size % Sham (range) (MB49 bladder tumors): 65 (53-70)^b % Sham
- Bladder weight g^−1 (range) (MB49 bladder tumors): 3.9 (3.2-4.8)^b g^−1

Molecule: COc1cc(OC)c(C=C2C(O)=Nc3ccccc32)c(OC)c1 [IC261]
- Effect on c-MYC degradation in infected cells (CK1α1 [4]; 100 μg/ml, 30 minutes pre-treatment, E. coli 536): reduced c-MYC degradation
- Effect on c-MYB inhibition by E. coli 536 (CK1α1 [4]; 30 minutes): reversed c-MYB inhibition

Molecule: [Cl-].[Cl-].[Mg+2] [MgCl2]
- Effect of metal ion pretreatment of E. coli 536 on c-MYC inhibition (c-MYC [1]): no effect

Molecule: CO[C@@]12[C@H](COC(N)=O)C3=C(C(=O)C(C)=C(N)C3=O)N1C[C@@H]1N[C@@H]12 [Mitomycin, reference compound]
- Bladder size % Sham (range) (MB49 bladder tumors): 67 (54-87)^b % Sham
- Bladder weight g^−1 (range) (MB49 bladder tumors): 4 (3.4-5.9)^b g^−1

Molecule: [Cl][Mn][Cl] [MnCl2]
- Effect of metal ion pretreatment of E. coli 536 on c-MYC inhibition (c-MYC [1]): no effect

Molecule: O=c1c(O)c(-c2ccc(O)c(O)c2)oc2cc(O)cc(O)c12 [Quercetin]
- Lon protease staining and uptake after endocytosis inhibitor pre-treatment [2]: reduced Lon protease staining and uptake

Molecule: [Cl-].[Cl-].[Zn+2] [ZnCl2]
- Effect of metal ion pretreatment of E. coli 536 on c-MYC inhibition (c-MYC [1]): reversed c-MYC inhibition
- Effect of treating the active E. coli 536 supernatant on MYC levels in host cells (c-MYC [1]): did not affect MYC levels in host cells

B1: Lon protease: Recombinant bacterial (E. coli) ATP-dependent serine peptidase Lon, commercially produced in E. coli K12 (protein, UniProt P0A9M0 2-784, looked up)
Lon protease: NPERSERIEIPVLPLRDVVVYPHMVIPLFVGREKSIRCLEAAMDHDKKIMLVAQKEASTDEPGVNDLFTVGTVASILQMLKLPDGTVKVLVEGLQRARISALSDNGEHFSAKAEYLESPTIDEREQEVLVRTAISQFEGYIKLNKKIPPEVLTSLNSIDDPARLADTIAAHMPLKLADKQSVLEMSDVNERLEYLMAMMESEIDLLQVEKRIRNRVKKQMEKSQREYYLNEQMKAIQKELGEMDDAPDENEALKRKIDAAKMPKEAKEKAEAELQKLKMMSPMSAEATVVRGYIDWMVQVPWNARSKVKKDLRQAQEILDTDHYGLERVKDRILEYLAVQSRVNKIKGPILCLVGPPGVGKTSLGQSIAKATGRKYVRMALGGVRDEAEIRGHRRTYIGSMPGKLIQKMAKVGVKNPLFLLDEIDKMSSDMRGDPASALLEVLDPEQNVAFSDHYLEVDYDLSDVMFVATSNSMNIPAPLLDRMEVIRLSGYTEDEKLNIAKRHLLPKQIERNALKKGELTVDDSAIIGIIRYYTREAGVRGLEREISKLCRKAVKQLLLDKSLKHIEINGDNLHDYLGVQRFDYGRADNENRVGQVTGLAWTEVGGDLLTIETACVPGKGKLTYTGSLGEVMQESIQAALTVVRARAEKLGINPDFYEKRDIHVHVPEGATPKDGPSAGIAMCTALVSCLTGNPVRADVAMTGEITLRGQVLPIGGLKEKLLAAHRGGIKTVLIPFENKRDLEEIPDNVIADLDIHPVKRIEEVLTLALQNEPSGMQVVTAK
- Degradation of CDK9 in vitro (CDK9): not degraded
- Pull-down of recombinant MAX (MAX [5]): Weak pull-down
- Cytotoxic effects in human kidney cells (human kidney cells): not detected
- Body weight at long-term follow up compared to sham (intestinal polyps): increase
- Cancer gene networks as share of all regulated genes (intestinal polyps): 93%
- Day until which mice remained asymptomatic (intestinal polyps): 175 days
- Intestinal polyp number at long-term follow up compared to sham (intestinal polyps): significant reduction
- MYC expression and MYC-dependent gene networks (intestinal polyps): inhibited
- Polyp number compared to sham and pre-treatment samples (intestinal polyps): reduced the polyp number
- Subset of colorectal cancer genes (intestinal polyps): 54%
- Survival (Kaplan Mayer plot) (intestinal polyps): increased survival
- c-MYB decrease compared to PBS (c-MYB): 45%
- Degradation of GRP75 in vitro (GRP75): not degraded
- Degradation of HH3 in vitro (HH3): not degraded
- Binding to c-MYC by co-immunoprecipitation (c-MYC [6]): verified; also recorded: dose-dependent
- Degradation of CBEB1 in vitro (CBEB1): not degraded
- Bladder weight and macroscopic appearance of the bladder [7]: No change
- MYC expression in bladders [7]: not regulated
- MYC-dependent genes activated [7]: 33
- MYC-dependent genes inhibited [7]: 1
- CEBP-δ degradation (CEBP-δ): < 5%
- Degradation of Actin in vitro (Actin): not degraded
- MYC-related genes activated [8]: 1
- MYC-related genes inhibited [8]: 8
- Body weight and macroscopic appearance of organs ([8]; po): No change
- MYC expression in intestines ([8]; po): not regulated
- Bladder size % Sham (range) (MB49 bladder tumors): 69 (53-85)^a % Sham
- Bladder size, weight and pathology compared to day 12 (MB49 bladder tumors): remained unchanged
- Bladder weight g^−1 (range) (MB49 bladder tumors): 5.3 (3.9-6.3)^a g^−1
- Bladder weights and pathology scores versus sham (MB49 bladder tumors): remained lower than in the sham group
- Cancer gene networks as share of all regulated genes, compared to sham (MB49 bladder tumors): 96.6%
- Day until which mice remained asymptomatic (MB49 bladder tumors): 27 days and 34 days
- Efficiency compared with E. coli 536 supernatant (tumor progression, gene expression) (MB49 bladder tumors): more efficient
- Expression of genes potentially involved in toxicity, compared with E. coli 536-treated mice (MB49 bladder tumors): less strongly expressed
- Gene expression inhibited compared to the sham group (MB49 bladder tumors): 95%
- Mice with bladder tumors present (MB49 bladder tumors): 15/15
- Mice with hematuria (MB49 bladder tumors): 3/15 and 2/12
- Subset of bladder cancer related genes inhibited (MB49 bladder tumors): 11.8%
- Survival (Kaplan Meyer plot) (MB49 bladder tumors): increased survival
- c-MYC degradation, comparative analysis of protein degradation (c-MYC [9]; FIG. 17i): degraded after 3 hours
- c-MYC remaining after Lon dependent degradation (c-MYC [9]; Recombinant c-MYC (1 μg) with Lon protease (2 μg), 37° C., 0 to 4 hours, from 200 ng, n=3): 79 ng
- Number of specific c-MYC peptides found after rLon degradation (LC-MS/MS) (c-MYC [9]; control sample 23 peptides): 10
- c-MYC sequence covered by specific peptides after rLon degradation (LC-MS/MS) (c-MYC [9]; control sample 51%): 23%
- c-MYC degradation in vitro (c-MYC [9]; recombinant c-MYC, kinetics): degrade recombinant c-MYC in vitro, in a time dependent manner
- c-MYC staining in human kidney cells (c-MYC [10]): dose-dependent decrease
- Degradation of AKT in vitro (AKT): not degraded
- Degradation of MAX in vitro (MAX [11]): not detected

— patent publication US20250388889A1 (priority 2019, published 2025)
